Measured values reported in article PMC9402713, “Structural analysis of Red1 as a conserved scaffold of the RNA-targeting MTREC/PAXT complex” (Nature Communications, 2022).
Where no end group is shown, it is not given here.

What was measured:
[1] = target: Ars2 68-183,206-531 (S. pombe) (UniProt O94326); assay: SEC-MALS; Ars2 68-183,206-531, the dimer peak of the size exclusion chromatography
[2] = target: His-MBP-Red1 452-524 (S. pombe) (UniProt Q9UTR8); assay: SEC-MALS; His-MBP-Red1 452-524, the dimer peak, injected at 9 mg/ml; stayed dimeric on reinjection
[3] = target: Strep-Iss10 1-45 (S. pombe); assay: SEC-MALS; co-purified Red1 192-236 / Iss10 1-45 complex on Superdex 200 10/300 GL, 4 °C, 20 mM Tris-HCl pH 8, 100 mM NaCl, 5 mM β-mercaptoethanol
[4] = target: T1, full-length (FL) His-MBP-Ars2 (S. pombe, UniProt O94326 1-609); assay: ITC; 200 mM NaCl
T1 chain: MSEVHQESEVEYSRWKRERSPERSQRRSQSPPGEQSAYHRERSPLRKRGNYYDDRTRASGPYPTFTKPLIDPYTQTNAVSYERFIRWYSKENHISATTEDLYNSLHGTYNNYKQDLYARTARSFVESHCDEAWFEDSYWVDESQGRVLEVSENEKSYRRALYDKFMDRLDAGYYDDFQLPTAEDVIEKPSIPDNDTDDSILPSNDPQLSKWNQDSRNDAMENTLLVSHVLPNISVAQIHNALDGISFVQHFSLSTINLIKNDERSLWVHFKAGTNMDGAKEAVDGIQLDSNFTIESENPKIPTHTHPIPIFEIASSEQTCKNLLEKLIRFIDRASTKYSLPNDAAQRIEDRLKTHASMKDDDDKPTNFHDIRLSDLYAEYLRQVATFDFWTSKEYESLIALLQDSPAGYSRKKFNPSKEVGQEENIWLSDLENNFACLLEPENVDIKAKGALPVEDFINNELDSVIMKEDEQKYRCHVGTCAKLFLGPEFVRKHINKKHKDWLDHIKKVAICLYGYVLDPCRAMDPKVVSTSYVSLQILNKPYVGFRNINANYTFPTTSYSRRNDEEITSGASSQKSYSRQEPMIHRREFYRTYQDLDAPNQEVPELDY

[5] = target: full-length (FL) His-MBP-Ars2 (S. pombe) (UniProt O94326); assay: ITC; 25 °C, 0.4-0.8 mM Red1 injected into 30-40 µM Ars2, 20 mM Tris pH 8.0, 200 mM NaCl, one-site model
[6] = target: T2, Ars2 (58-609) (Schizosaccharomyces pombe); assay: ITC; 200 mM NaCl
T2 chain: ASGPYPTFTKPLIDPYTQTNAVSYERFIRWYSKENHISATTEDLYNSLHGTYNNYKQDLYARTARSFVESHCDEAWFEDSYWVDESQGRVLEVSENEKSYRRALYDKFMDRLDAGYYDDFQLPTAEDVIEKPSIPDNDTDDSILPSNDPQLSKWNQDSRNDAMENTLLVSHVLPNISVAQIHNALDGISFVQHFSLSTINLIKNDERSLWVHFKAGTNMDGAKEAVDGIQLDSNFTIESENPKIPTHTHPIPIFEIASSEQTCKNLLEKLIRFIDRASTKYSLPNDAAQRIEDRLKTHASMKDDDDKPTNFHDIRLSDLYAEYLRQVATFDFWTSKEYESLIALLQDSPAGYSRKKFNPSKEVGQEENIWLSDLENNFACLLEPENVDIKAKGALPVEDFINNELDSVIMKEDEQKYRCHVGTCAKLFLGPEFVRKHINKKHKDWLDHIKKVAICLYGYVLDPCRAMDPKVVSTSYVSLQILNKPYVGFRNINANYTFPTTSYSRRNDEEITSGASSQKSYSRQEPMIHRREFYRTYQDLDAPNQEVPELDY

[7] = target: T3, Strep-Ars2 107-527 (S. pombe, UniProt O94326 107-527); assay: ITC; 25 °C, 0.4-0.8 mM Red1 injected into 30-40 µM Ars2, 20 mM Tris pH 8.0, 100 mM NaCl, one-site model; conditions: both partners purified
T3 construct: vector pETM41; source: E. coli BL21Star (DE3), purified (Ni^2+ chelating Sepharose); not shown: Strep-tag, C-terminal, kept
T3 sequence (looked up): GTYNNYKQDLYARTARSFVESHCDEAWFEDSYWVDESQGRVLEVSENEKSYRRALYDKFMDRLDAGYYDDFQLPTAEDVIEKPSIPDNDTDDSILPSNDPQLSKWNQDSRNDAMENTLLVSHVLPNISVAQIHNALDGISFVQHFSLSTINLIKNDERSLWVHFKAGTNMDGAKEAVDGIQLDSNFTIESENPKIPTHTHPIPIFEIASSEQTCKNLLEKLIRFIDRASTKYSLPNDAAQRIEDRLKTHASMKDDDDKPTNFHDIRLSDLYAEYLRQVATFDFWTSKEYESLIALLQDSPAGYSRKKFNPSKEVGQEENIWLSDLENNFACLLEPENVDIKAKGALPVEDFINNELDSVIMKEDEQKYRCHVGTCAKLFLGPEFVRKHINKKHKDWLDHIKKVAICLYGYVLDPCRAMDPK

[8] = target: T4, full-length (FL) His-MBP-Ars2 (S. pombe, UniProt O94326 1-609); assay: ITC; 25 °C, 0.4-0.8 mM Red1 injected into 30-40 µM Ars2, 20 mM Tris pH 8.0, 200 mM NaCl, one-site model; conditions: both partners purified
T4 construct: Ars2, S. pombe, 609 residues; the tags are named on the protein for the gel filtration; also called FL Ars2; full-length Ars2; source: E. coli, expressed as MBP fusion, purified (amylose resin, Superdex 200)
T4 sequence (looked up): T1 chain

[9] = target: T3, Strep-Ars2 107-527; assay: as above; conditions: both partners purified
[10] = target: T5, His-GST-tagged human ARS2 147-871 (human, UniProt Q9BXP5 147-871); assay: pull-down; MBP pull-down: Ni-purified His-MBP-peptide held on amylose resin, His-GST-ARS2 added; 20 mM Tris pH 8, 100 mM NaCl; eluted with 10 mM maltose; conditions: both partners purified
T5 construct: ARS2 (SRRT), human, residues 147-871; vector pETM30; also called hARS2^147–871; His-GST-ARS2; source: E. coli BL21Star (DE3), purified (Ni^2+ chelating Sepharose)
T5 sequence (looked up): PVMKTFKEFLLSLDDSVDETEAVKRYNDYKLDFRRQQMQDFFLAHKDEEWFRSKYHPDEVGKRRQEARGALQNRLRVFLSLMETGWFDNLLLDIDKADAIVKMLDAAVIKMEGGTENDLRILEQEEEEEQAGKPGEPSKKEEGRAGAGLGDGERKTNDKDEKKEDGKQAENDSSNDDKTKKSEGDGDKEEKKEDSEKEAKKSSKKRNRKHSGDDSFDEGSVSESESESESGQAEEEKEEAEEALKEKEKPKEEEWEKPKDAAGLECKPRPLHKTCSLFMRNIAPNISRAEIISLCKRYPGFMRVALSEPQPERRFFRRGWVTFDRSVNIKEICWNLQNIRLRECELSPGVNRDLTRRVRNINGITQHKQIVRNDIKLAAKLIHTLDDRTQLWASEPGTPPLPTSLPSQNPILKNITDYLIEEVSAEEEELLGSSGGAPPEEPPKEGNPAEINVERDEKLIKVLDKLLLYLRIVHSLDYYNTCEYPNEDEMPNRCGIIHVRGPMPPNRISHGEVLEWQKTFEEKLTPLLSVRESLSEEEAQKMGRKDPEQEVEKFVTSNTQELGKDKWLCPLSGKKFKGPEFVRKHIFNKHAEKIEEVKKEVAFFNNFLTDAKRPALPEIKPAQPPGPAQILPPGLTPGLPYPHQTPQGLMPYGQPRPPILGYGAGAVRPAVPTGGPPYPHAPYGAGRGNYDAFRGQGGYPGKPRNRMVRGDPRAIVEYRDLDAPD

Molecule: Ars2 68-183,206-531 (from UniProt O94326 68-183; O94326 206-531) (domain or fragment)
- stoichiometry N [1]: 2

Molecule: His-MBP-Red1 452-524 (from UniProt Q9UTR8 452-524) (domain or fragment)
- stoichiometry N [2]: 2

Molecule: TTNQKEAEKAVSQLFEVGVRFNDFIAEGIEPSVVHTLFLKLGLDS (domain or fragment) [Red1 192-236, His-MBP tag cleaved]
- stoichiometry N [3]: 1

B1: His-MBP-Red1 1-54 (domain or fragment)
chain: MSRSINLDELRKKALESKKKNEEDESNDSDKEDGEISEDDPVIDQSNSVPPMKV
- Kd [4]: 5.6 µM
- Kd [5]: 5 µM

Molecule: KNEEDESNDSDKEDGEISEDD (not fully specified)
- Kd [6]: 4.4 µM

B2: His-MBP-Red1 20-40 (domain or fragment, S. pombe)
chain: KNEEDESNDSDKEDGEISEDD
notes: Red1, S. pombe, residues 20-40 with the EDGEI motif; vector pETM41; also called MBP-Red1 EDGEI motif-containing peptide; source: E. coli BL21Star (DE3), purified (Ni^2+ chelating Sepharose or amylose resin, Superdex 200)
- Kd [7]: 0.8 µM
- Kd [8]: ~5 µM
- Kd [9]: 5 µM
- binding result [10]: binds

B3: Red1 peptide 20-40 (peptide)
peptide: KNEEDESNDSDKEDGEISEDD
notes: Red1, S. pombe, residues 20-40 with the EDGEI motif; also called Red1^20–40 peptide; Red1 N-terminal peptide; source: synthetic peptide (PSL GMBH)
- Kd [8]: ~5 µM

B4: His-MBP-tagged ZFC3H1 12-33 (domain or fragment, human, UniProt O60293 12-33, looked up)
chain: SGLSPKEEGELEDGEISDDDNN
notes: ZFC3H1, human, 1989 residues, residues 12-33 with the EDGEI motif; vector pETM41; also called MBP-ZFC3H1; hZFC3H1; source: E. coli BL21Star (DE3), purified (Ni^2+ chelating Sepharose)
- binding result [10]: binds

B5: His-MBP-ZFC3H1 12-33 I27L (domain or fragment, human, UniProt O60293 12-33, looked up)
chain: SGLSPKEEGELEDGELSDDDNN
notes: ZFC3H1, human, residues 12-33; source: E. coli BL21Star (DE3), purified (Ni^2+ chelating Sepharose)
- binding result [10]: binds

B6: His-MBP-ZFC3H1 20-31 (domain or fragment, human, UniProt O60293 20-31, looked up)
chain: GELEDGEISDDD
notes: ZFC3H1, human, residues 20-31 (12 residues); source: E. coli BL21Star (DE3), purified (Ni^2+ chelating Sepharose)
- binding result [10]: binds
